According to PMC314469, “Protein Interaction Networks by Proteome Peptide Scanning” (PLoS Biology, 2004):

T1: amphyphisin SH3 (AMPH_HUMAN), P49418
T1 chain: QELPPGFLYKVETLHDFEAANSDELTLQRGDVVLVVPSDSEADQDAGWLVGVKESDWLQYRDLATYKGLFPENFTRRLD


Assays:
[1] = target: endophilin SH3 (SH3G2_HUMAN), Q99962; test: SPOT array
[2] = target: T1, amphyphisin SH3 (AMPH_HUMAN), P49418; test: SPOT array

Row | normalised SPOT signal, Boehringer light units (BLU); mean over the file's lines of this peptide [1] | normalised SPOT signal, Boehringer light units (BLU); mean over the file's lines of this peptide [2] | Binder
1 | 61.9 | 27.1 | IFGPLKRPIVEFSL [Q9NW13 566-579]
2 | 112 | 727 | ALSLPEKPPRGEQG [O94819 607-621]
3 | 1060 | 73.4 | IIPSPKRPVKLLSG [P04114 925-938]
4 | 127 | 81.7 | IFDGIQRPLKDINE [P38607 97-110]
5 | 0 | 26.6 | ILDTLRRPKPVVDP [Q9NQU5 43-56]
6 | 165 | 111 | IFMYLRRPTEESVE [Q96RC0 189-202]
7 | 797 | 344 | ILSPPRRPRHSQPA [Q8WYU9 180-193]
8 | 108 | 54.6 | ALRGLVRPHKKRKK [Q9NY93 500-513]
9 | 458 | 118 | IKILPARPIKESEY [Q9P2U9 65-78]
10 | 63.7 | 28.9 | IKFVIKRPELLTHS [P78347 534-547]
11 | 109 | 71.7 | IQEALKRPMKQKRK [Q92926 129-142]
12 | 366 | 1320 | ILPSLSRPARSDQA [O43149 568-581]
13 | 130 | 173 | ILLSISRPYKTKPT [Q9Y5J0 40-53]
14 | 7610 | 11100 | IPERPLRPPSEKRA [Q9Y2W3 72-86]
15 | 314 | 205 | IGRNIARPWKLIYY [Q15361 592-605]
16 | 365 | 113 | IEPQIRRPRSLSSP [O43165 457-470]
17 | 81 | 37.1 | IKILLRRPNEKKSK [P32246 223-236]
18 | 5800 | 17700 | ILGPPRRPSRHDNS [Q9NZN5 600-613]
19 | 230 | 62.4 | IMFDLRRPPQNHTY [Q9HCC8 352-365]
20 | 1550 | 33 | ILGSPARPPFSFQP [Q96C66 716-730]
21 | 1340 | 5480 | IHSDPLRPRRETSH [P20849 240-253]

Row | normalised SPOT signal, Boehringer light units (BLU); mean over the file's lines of this peptide [1] | normalised SPOT signal, Boehringer light units (BLU); mean over the file's lines of this peptide [2] | Binder
22 | 58.3 | 123 | ILAKISRPKKRAKT [P48048 178-191]
23 | 7170 | 4170 | IFVAPKRPSPLPRA [Q9NZP6 64-77]
24 | 437 | 48.4 | IKPFPSRPPVLTQE [Q9P2K1 327-341]
25 | 3140 | 8510 | ILGFPLRPNRGLYQ [O95972 116-129]
26 | 256 | 31.5 | ALQSPKRPRSPGSN [P78347 665-678]
27 | 628 | 68.6 | IKTPPKRPGGRRRG [Q15910 343-356]
28 | 3430 | 3250 | IIRPPVRPPDPPSR [O60890 736-750]
29 | 2290 | 861 | IQAPPPRPPKNQGL [Q9BYB6 252-266]
30 | 353 | 48 | ALRWLRRPEDRAFS [Q13472 9-22]
31 | 23.1 | 30.9 | ILPDFKRPASFGTY [O43844 486-499]
32 | 128 | 131 | IGVSPGRPGKSVLF [Q92918 675-688]
33 | 89.8 | 92.2 | IQEALKRPIKQKRK [Q9Y635 106-119]
34 | 32.8 | 59 | IPREPGRPGKGNYW [Q12950 67-80]
35 | 71.7 | 83.7 | IIHVISRPLKAPPA [Q9NRY3 784-797]
36 | 49.2 | 15.8 | IIRQIRRPKNVVLR [O94887 105-118]
37 | 205 | 41.5 | IGYDFRRPLAQLRE [O60288 996-1009]
38 | 1310 | 7790 | ILRPPRRPRKPKTL [Q9NYS8 1488-1501]
39 | 36.9 | 39.7 | IFSTLKRPQVETKT [Q96NM3 19-32]
40 | 134 | 32 | IIQELRRPKYTIYF [Q9Y4Z6 82-95]
41 | 96.8 | 107 | IKKDLSRPQKPQLV [P31629 870-883]
42 | 84800 | 27600 | IPQRPSRPARRPLG [Q9HBL3 242-255]
